Bridges are numbered along the chain shown (N, C = ends). Where no end group is shown, it is not given here. [ ]: non-standard residue; d: D form.

Assay [1] addresses T1, CPI1 (synthetic construct, thioether N-17).
T1 chain: {CH2CO}-[dY]FWGNLHWYYEQFDSTC
Kind of assay: ATPase activity inhibition assay (NADH-coupled), no LTC4.

The target in assay [2] is T2, CPI1 (synthetic construct, thioether N-17).
T2 chain: {CH2CO}-[dY]FWGNLHWYYEQFDSTC
Kind of assay: ATPase activity inhibition assay (NADH-coupled), with 3.5 µM LTC4.

B1: MRP1 (bMRP1) (protein)
chain: MALRDFCSVDGSDLFWEWNVTWNTSNPDFTKCFQNTVLVWVPCSYLWVCFPFYFLYLSHHDRGYIQMTHLNKAKTALGFLLWIVCWADLFYSFWERSMGKLLAPVFLVSPTLLGITMLLATFLIQIERRRGVQSSGIMLTFWLIALLCALAILRSKIMTALKEDARVDVFRDVTFYIYFSLVLIQLVLSCFSDRSPLFSETINDPNPCPESSASFLSRITFWWITGMMVQGYRQPLESTDLWSLNKEDTSEQVVPVLVKNWKKECAKSRKQPVKIVYSSKDPAKPKGSSKVDVNEEAEALIVKCPQKERDPSLFKVLYKTFGPYFLMSFLFKAVHDLMMFAGPEILKLLINFVNDKKAPEWQGYFYTALLFISACLQTLVLHQYFHICFVSGMRIKTAVIGAVYRKALVITNAARKSSTVGEIVNLMSVDAQRFMDLATYINMIWSAPLQVILALYLLWLNLGPSVLAGVAVMVLMVPLNAVMAMKTKTYQVAHMKSKDNRIKLMNEILNGIKVLKLYAWELAFKDKVLAIRQEELKVLKKSAYLAAVGTFTWVCTPFLVALSTFAVYVTVDENNILDAQKAFVSLALFNILRFPLNILPMVISSIVQASVSLKRLRVFLSHEDLDPDSIQRRPIKDAGATNSITVKNATFTWARNDPPTLHGITFSVPEGSLVAVVGQVGCGKSSLLSALLAEMDKVEGHVTVKGSVAYVPQQAWIQNISLRENILFGRQLQERYYKAVVEACALLPDLEILPSGDRTEIGEKGVNLSGGQKQRVSLARAVYCDSDVYLLDDPLSAVDAHVGKHIFENVIGPKGLLKNKTRLLVTHAISYLPQMDVIIVMSGGKISEMGSYQELLARDGAFAEFLRTYASAEQEQGQPEDGLAGVGGPGKEVKQMENGMLVTDTAGKQMQRQLSSSSSYSRDVSQHHTSTAELRKPGPTEETWKLVEADKAQTGQVKLSVYWDYMKAIGLFISFLSIFLFLCNHVASLVSNYWLSLWTDDPIVNGTQEHTQVRLSVYGALGISQGITVFGYSMAVSIGGIFASRRLHLDLLHNVLRSPISFFERTPSGNLVNRFSKELDTVDSMIPQVIKMFMGSLFNVIGACIIILLATPMAAVIIPPLGLIYFFVQRFYVASSRQLKRLESVSRSPVYSHFNETLLGVSVIRAFEEQERFIRQSDLKVDENQKAYYPSIVANRWLAVRLECVGNCIVLFASLFAVISRHSLSAGLVGLSVSYSLQVTTYLNWLVRMSSEMETNIVAVERLKEYSETEKEAPWQIQDMAPPKDWPQVGRVEFRDYGLRYREDLDLVLKHINVTIDGGEKVGIVGRTGAGKSSLTLGLFRIKESAEGEIIIDDINIAKIGLHDLRFKITIIPQDPVLFSGSLRMNLDPFSQYSDEEVWTSLELAHLKGFVSALPDKLNHECAEGGENLSVGQRQLVCLARALLRKTKILVLDEATAAVDLETDDLIQSTIRTQFDDCTVLTIAHRLNTIMDYTRVIVLDKGEIQEWGSPSDLLQQRGLFYSMAKDSGLV
On to B1, for which the figures for the Ki with CPI1 [1] and with CPI1 [2] were 0.07 µM and 0.095 µM, respectively.

As usually defined, the Ki is the dissociation constant of the complex between target and ligand, obtained from inhibition or displacement. Lower therefore signals a stronger hold on the target.

The record behind these values is article PMC10089224 (2023).
